According to article PMC1904285:

Assays:
SsoSSB = biological target: T1, SsoSSB (Sulfolobus solfataricus, UniProt Q97W73 1-148); experiment: EMSA
T1 sequence: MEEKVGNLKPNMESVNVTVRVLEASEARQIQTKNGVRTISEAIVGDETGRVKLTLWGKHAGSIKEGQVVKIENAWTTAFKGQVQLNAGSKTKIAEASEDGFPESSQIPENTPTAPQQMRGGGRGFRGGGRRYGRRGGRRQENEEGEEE

[1] = biological target: T2, His6-CspB (major cold shock protein) (Bacillus subtilis, UniProt P32081 1-67); experiment: EMSA
SsoSSB-Cy5 = biological target: T3, SsoSSB-Cy5 (Sulfolobus solfataricus, UniProt Q97W73 1-148); experiment: EMSA
T3 sequence: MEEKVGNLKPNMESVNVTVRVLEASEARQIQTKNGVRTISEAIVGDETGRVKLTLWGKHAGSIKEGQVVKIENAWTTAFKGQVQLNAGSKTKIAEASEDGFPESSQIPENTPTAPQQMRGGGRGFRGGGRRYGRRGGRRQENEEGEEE

CspB (untagged) = CspB (untagged) (Bacillus subtilis, UniProt P32081 1-67); experiment: EMSA
CspB (untagged), sequence (P32081 whole entry): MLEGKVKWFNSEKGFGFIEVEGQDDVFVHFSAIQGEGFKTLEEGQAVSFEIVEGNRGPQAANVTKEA

[2] = biological target: T2, His6-CspB (major cold shock protein); experiment: ITC
[3] = biological target: His6-CspB (major cold shock protein);SsoSSB (Bacillus subtilis;Sulfolobus …, UniProt P32081;Q97W73 1-67;1-148, |); experiment: EMSA
His6-CspB (major cold shock protein);SsoSSB, sequence (P32081 whole entry, one chain of several): as the sequence (P32081 whole entry) above

[4] = biological target: T2, His6-CspB (major cold shock protein); experiment: competition EMSA

T2 sequence (P32081 whole entry): as above

B1: ONc (ssDNA)
DNA: ATCCTACTGATTGGCCAAGGTGCTG
SsoSSB
  binding result: binds
[1]
  binding result: binds
SsoSSB-Cy5
  binding result: binds
CspB (untagged)
  binding result: binds

B2: ITC1 (consensus variant GTCTTTG) (ssDNA)
DNA: GTCTTTG
[2]
  binding result: binds

B3: ON-Mt (ssDNA)
DNA: AAAAAAAAAAGCACTTAAAAAAAAA
[3]
  binding result: binds
[4]
  binding result: binds

B4: ITC2 (consensus variant GTCTTTT) (ssDNA)
DNA: GTCTTTT
[2]
  binding result: binds
